The source of these data is patent publication EP4792830A2 (Pfizer Inc., dated 2026).

Changes are numbered by the printed parent chain.

T1: rabTFPI K1K2 (rabbit, limits assumed)
T1 construct: also called Rabbit TFPI K1K2
T1 chain: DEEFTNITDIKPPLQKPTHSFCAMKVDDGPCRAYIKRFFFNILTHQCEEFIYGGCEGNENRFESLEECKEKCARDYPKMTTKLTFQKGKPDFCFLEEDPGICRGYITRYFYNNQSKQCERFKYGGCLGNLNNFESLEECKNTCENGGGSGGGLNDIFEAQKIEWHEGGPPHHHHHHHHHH

B1: 2A8-200 (antibody, human IgG1, lambda, V domains shown)
VH: QVQLVESGGGLVQPGGSLRLSCAASGFTFRSYGMDWVRQAPGKGLEWVSSIRGSRSSTYYADSVKGRFTISRDNSKNTLYLQMNSLRAEDTAVYYCARLYRYWFDYWGQGTLVTVSS
VL: DIELTQPPSVSVAPGQTARISCSGDNLRNYYAHWYQQKPGQAPVVVIFYDVNRPSGIPERFSGSNSGNTATLTISGTQAEDEADYYCQSWWDGVPVFGGGTKLTVLG
notes: also called Anti-TFPI-2A8-200
B2: hz4D8 (antibody, human IgG1, kappa, V domains shown)
VH: EVQLVESGGGLVQPGGSLRLSCAASGYTFTDYNLDWVRQAPGKGLEWVADINPINGATLYNQKFKGRFTISRDQAKNSLYLQMNSLRAEDTAVYYCARYYGDYDAMDYWGQGTLVTVSS
VL: DIQMTQSPSSLSASVGDRVTITCKASQDVHTAVAWYQQKPGKAPKLLIYWASTRHTGVPSRFSGSGSGTDYTLTISSLQPEDFATYYCQQHYTTPYTFGQGTKLEIKR
notes: humanized, human IgG1 3M / kappa; also called 4D8-Vk1.1 x VH1.4; 4D8 Vk 1.1 x VH 1.4
B3: hz4F36 (antibody, human IgG4 S228P, kappa, V domains shown)
VH: EVQLVESGGGLVKPGGSLRLSCAASGFTFSNYAMSWVRQTPEKRLEWVATISRSGSYSYFPDSVQGRFTISRDNAKNSLYLQMNSLRAEDTAVYYCARLGGYDEGDAMDSWGQGTTVTVSS
VL: DIVMTQTPLSLSVTPGQPASISCKSSQSLLESDGKTYLNWYLQKPGQSPQLLIYLVSILDSGVPDRFSGSGSGTDFTLKISRVEAEDVGVYYCLQATHFPQTFGGGTKVEIKR
notes: also called Novo2021; Anti-TFPI-4F36
B4: TFPI-106 (antibody, human IgG1, lambda)
heavy: not shown
light: QSVLTQPPSVSGAPGQRVTISCTGSSSNIGAGYDVHWYQQLPGTAPKLLIYGNSNRPSGVPDRFSGSKSGTSASLAITGLQAEDEADYYCQSYDSSLSGSGVFGGGTKLTVLGQPKAAPSVTLFPPSSEELQANKATLVCLISDFYPGAVTVAWKADSSPVKAGVETTTPSKQSNNKYAASSYLSLTPEQWKSHRSYSCQVTHEGSTVEKTVAPTECS
notes: IgG1-3M
B5: TFPI-118 (antibody, human IgG1, lambda, V domains shown)
VH: EVQLVESGGGLVQPGRSLRLSCAVSGLTIDNYAMQWVRQAPGKGLEWVSGISGNSRSIGYADSVKGRFTISRDNAKNSLYLQMNSLRAEDTALYYCAIFLHESDYWGQGTLVTVSS
VL: QSVLTQPPSASGTPGQRVTISCSGSTSNIGTMYVHWYQQLPGTAPKLLIYRNNHRPSGVPDRFSGSKSGTSASLAISGLRSEDEADYYCLAWDDTLRAYVFGTGTKVTVLG
notes: Germlined variant of TFPI-24: VL of TFPI-113 paired with VH of TFPI-108
B6: TFPI-24 (antibody, human IgG1, lambda, V domains shown)
VH: B5 VH with L11S, A40R, F68L, M83I, N84D, E89D
VL: B5 VL with A10V, Q39H, L40V, A72G
notes: Phage-derived, human IgG1-3M; also called mAb-TFPI-24; clone 24
B7: 7A4.D9 (antibody, V domains shown)
VH: EVQLQQSGPELVKPGASVKMSCKASGYTFTSYVMHWVKQKPGQGLEWIGYLNPYNDGTKYNEKFKGKASLISDKSSSTVYMELSSLTSEDSAVYYCATTLLYAMDYWGQGSSVTVSS
VL: DIVLTQSPASLAVSLGQRATISCRASKSVSTSGYTYMHWYQQKPGQPPKLLIYLASNLESGVPARFSGSGSGTDFTLNIHPVEEEDAAAYYCQHIRELPFTFGSGTKLEIKA
notes: Mouse hybridoma antibody
B8: 6B7.c5 (antibody, human IgG1, kappa, V domains shown)
VH: EVLLQQSGPELVKPGSSVKIPCKASGYTFTDYTMDWVKQSHGKSLEWIGDINPSNGGSIYNRKFKGKATLTVDKSSSTAYMELRSLTSEDTAVYYCARMHYNYDGFPYWGQGTLVTVSA
VL: DIVMTQSHKFMSTSVGDRVSITCKASQDVITAVAWYQQKPGQSPKLLIYWASTRHTGVPVRFTGSGSGTDYTLTIISVQAEDLALYYCQQHYSTPYTFGGGTKLEIKA
notes: Mouse hybridoma antibody
B9: 4D8.b1 (antibody, mouse IgG1, kappa)
heavy: EVLLQQSGPELVKPGASVKIPCKASGYTFTDYNLDWVKQSHGKSLEWIGDINPINGATLYNQKFKGKATLTVDQSSSTAYMELRSLTSEDTAVYYCSIYYGDYDAMDYWGQGASVTVSSAKTTPPSVYPLAPGSAAQTNSMVTLGCLVKGYFPEPVTVTWNSGSLSSGVHTFPAVLQSDLYTLSSSVTVPSSTWPSETVTCNVAHPASSTKVDKKIVPRDCGCKPCICTVPEVSSVFIFPPKPKDVLTITLTPKVTCVVVDISKDDPEVQFSWFVDDVEVHTAQTQPREEQFNSTFRSVSELPIMHQDWLNGKEFKCRVNSAAFPAPIEKTISKTKGRPKAPQVYTIPPPKEQMAKDKVSLTCMITDFFPEDITVEWQWNGQPAENYKNTQPIMDTDGSYFVYSKLNVQKSNWEAGNTFTCSVLHEGLHNHHTEKSLSHSPGK
light: DIVMTQSHKFMSTSVGDRVSITCKASQDVHTAVAWYQQKPGQSPRLLIYWASTRHTGVPDRFTGCGSGTDYTLTISSVQAEDLALYYCQQHYTTPYTFGGGTKLEMKADAAPTVSIFPPSSEQLTSGGASVVCFLNNFYPKDINVKWKIDGSERQNGVLNSWTDQDSKDSTYSMSSTLTLTKDEYERHNSYTCEATHKTSTSPIVKSFNRNEC
notes: also called mouse 4d8.b1; TFPI 4D8
B10: 2A8 (antibody, human IgG1, lambda, V domains shown)
VH: B1 VH with D35S, R55S, L99K
VL: B1 VL with F48Y, V51N, W91D
B11: 4D8-Vk1.0 x VH1.0 (antibody, human IgG1, kappa, V domains shown)
VH: B2 VH with Q74N
VL: B2 VL with Y71F
notes: Humanized 4D8 variant
B12: 4D8-Vk1.0 x VH1.4 (antibody, human IgG1, kappa, V domains shown)
VH: B2 VH
VL: B2 VL with Y71F
notes: Humanized 4D8 variant
B13: 4D8-Vk1.1 x VH1.0 (antibody, human IgG1, kappa, V domains shown)
VH: B2 VH with Q74N
VL: B2 VL
notes: Humanized 4D8 variant
B14: 4D8-Vk1.1 x VH1.3 (antibody, human IgG1, kappa, V domains shown)
VH: B2 VH with F68A, Q74N
VL: B2 VL
notes: Humanized 4D8 variant
B15: 4D8-Vk1.0 x VH1.3 (antibody, human IgG1, kappa, V domains shown)
VH: B2 VH with F68A, Q74N
VL: B2 VL with Y71F
notes: Humanized 4D8 variant
B16: 4D8-Vk1.1 x VH1.2 (antibody, human IgG1, kappa, V domains shown)
VH: B2 VH with A49G, Q74N
VL: B2 VL
notes: Humanized 4D8 variant
B17: 4D8-Vk1.1 x VH1.1 (antibody, human IgG1, kappa, V domains shown)
VH: B2 VH with A49G, F68A, R72V, L79A
VL: B2 VL
notes: Humanized 4D8 variant
B18: 4D8-Vk1.0 x VH1.1 (antibody, human IgG1, kappa, V domains shown)
VH: B2 VH with A49G, F68A, R72V, L79A
VL: B2 VL with Y71F
notes: Humanized 4D8 variant
B19: 4D8-Vk1.0 x VH1.2 (antibody, human IgG1, kappa, V domains shown)
VH: B2 VH with A49G, Q74N
VL: B2 VL with Y71F
notes: Humanized 4D8 variant

The target of one assay is T1, rabTFPI K1K2. In words: SPR (summary table).
The Kd is the constant that tells how readily two partners part at equilibrium. B1 gave a Kd of 0.145 nM.

Take B2: the equilibrium dissociation constant (Kd) came out at 0.502 nM. Compared with the last molecule, the Kd is about 3.5-fold higher.

B3 came in with a Kd of 1.81 nM.

B4 registered a Kd of 4.25 nM.

Regarding B5, the affinity, expressed as Kd, was 5.79 nM.

In a further assay the target is T2, humTFPI K1K2 (human).
T2 construct: Biotinylated on the AviTag for ELISA; also called Human TFPI alpha K1K2; humTFPI K1K2-aviHis10
In words: SPR, antibody ligand, TFPI analyte. On the technique in general: Surface plasmon resonance follows binding to a sensor surface in real time, without labels.
As a reminder, the koff is a measure of how fast the partners let go of each other. One may read the kon as the rate constant with which the complex forms. The low end stands for slower complex formation, the high end for faster complex formation. In turn, B6 had a Kd of 3.68 nM, a dissociation rate constant (koff) of 0.00971 s⁻¹ and a kon of 918000 M⁻¹ s⁻¹.

The next assay has as its target T1, rabTFPI K1K2. In words: SPR, antibody ligand, TFPI analyte.
For the molecule B7, binding was put at a Kd of 3.55 nM, the koff was determined as 0.0188 s⁻¹ and the kon amounted to 5.3e+06 M⁻¹ s⁻¹.

B8 came in with a Kd of 4.95 nM, a koff of 0.00564 s⁻¹ and a kon of 1.14e+06 M⁻¹ s⁻¹.

Take B9: the Kd turned out to be 0.63 nM, the koff turned out to be 0.00126 s⁻¹ and the kon was determined as 2.01e+06 M⁻¹ s⁻¹.

The next assay concerns the target T1, rabTFPI K1K2. In words: SPR, antibody ligand, TFPI analyte. This is another data set of the same source.
With B10, the Kd was 1.69 nM, the koff is 0.00123 s⁻¹ and the kon came to 730000 M⁻¹ s⁻¹.

In turn, B1 yielded a Kd of 0.145 nM, a koff of 0.000277 s⁻¹ and an on-rate constant (kon) of 1.92e+06 M⁻¹ s⁻¹.

Consider B2, for which the Kd came to 0.502 nM, the koff worked out at 0.0029 s⁻¹ and the kon was 3.16e+06 M⁻¹ s⁻¹.

As to B3, the dissociation constant Kd turned out to be 1.81 nM, the koff amounted to 0.0076 s⁻¹ and the kon came out at 4.2e+06 M⁻¹ s⁻¹.

B4 had a Kd of 4.25 nM. This counts as single-digit nanomolar.

With B5, binding was characterised by a dissociation constant (Kd) of 5.79 nM.

The target in another assay is T2, humTFPI K1K2. In words: SPR, antibody ligand, TFPI analyte. This is another data set of the same source.
The molecule B1 yielded a koff of 0.00381 s⁻¹.

The next assay deals with T3, cynTFPI K1K2 (cynomolgus monkey).
T3 construct: also called Cynomolgus Monkey TFPI K1K2; cyno TFPI K1K2
The assay is described as follows: SPR, antibody ligand, TFPI analyte.
B10 had a koff of 0.0306 s⁻¹.

A further assay has as its target T1, rabTFPI K1K2. In words: ELISA, TFPI on streptavidin plate.
One may read the EC50 as the concentration needed to bring the measured effect to its halfway point. A high value points to weaker potency. With B7, the EC50 was found to be 0.0887 nM. This lies in the picomolar range.

In the case of B8, the half-maximal effective concentration (EC50) came out at 0.129 nM.

On to B9, for which the EC50 worked out at 0.0976 nM.

The next assay concerns the target T1, rabTFPI K1K2. In words: ELISA, TFPI on streptavidin plate. The source holds these as a separate data set. For orientation: ELISA stands for enzyme-linked immunosorbent assay.
For the molecule B11, a half-maximal effect (EC50) was put at 0.0785 nM. In other words, the picomolar range.

The molecule B12 came in with an EC50 of 0.0426 nM.

B13: the EC50 is 0.0451 nM.

As for B2, the EC50 is 0.0716 nM.

In turn, B14 came in with an EC50 of 0.0511 nM.

As to B15, the half-maximal effective concentration (EC50) was 0.0556 nM.

Molecule B16 came in with an EC50 of 0.0783 nM.

B17 showed an EC50 of 0.0788 nM.

B18 displayed an EC50 of 0.0705 nM.

With B19, the EC50 turned out to be 0.0422 nM. This EC50 lies about 1.7-fold lower than the previous one.
